Publication PMC8298264, “Function of cofactor Akirin2 in the regulation of gene expression in model human neutrophil-like HL60 cells” (Bioscience Reports, 2021)

B1: sp¦P35908¦K22E_HUMAN (protein, UniProt P35908 1-639, looked up)
Keratin, type II cytoskeletal …: MSCQISCKSRGRGGGGGGFRGFSSGSAVVSGGSRRSTSSFSCLSRHGGGGGGFGGGGFGSRSLVGLGGTKSISISVAGGGGGFGAAGGFGGRGGGFGGGSSFGGGSGFSGGGFGGGGFGGGRFGGFGGPGGVGGLGGPGGFGPGGYPGGIHEVSVNQSLLQPLNVKVDPEIQNVKAQEREQIKTLNNKFASFIDKVRFLEQQNQVLQTKWELLQQMNVGTRPINLEPIFQGYIDSLKRYLDGLTAERTSQNSELNNMQDLVEDYKKKYEDEINKRTAAENDFVTLKKDVDNAYMIKVELQSKVDLLNQEIEFLKVLYDAEISQIHQSVTDTNVILSMDNSRNLDLDSIIAEVKAQYEEIAQRSKEEAEALYHSKYEELQVTVGRHGDSLKEIKIEISELNRVIQRLQGEIAHVKKQCKNVQDAIADAEQRGEHALKDARNKLNDLEEALQQAKEDLARLLRDYQELMNVKLALDVEIATYRKLLEGEECRMSGDLSSNVTVSVTSSTISSNVASKAAFGGSGGRGSSSGGGYSSGSSSYGSGGRQSGSRGGSGGGGSISGGGYGSGGGSGGRYGSGGGSKGGSISGGGYGSGGGKHSSGGGSRGGSSSGGGYGSGGGGSSSVKGSSGEAFGSSVTFSFR
B2: sp¦Q8TCJ2¦STT3B_HUMAN (protein, UniProt Q8TCJ2 2-826, looked up)
Dolichyl-diphosphooligosacchar …: AEPSAPESKHKSSLNSSPWSGLMALGNSRHGHHGPGAQCAHKAAGGAAPPKPAPAGLSGGLSQPAGWQSLLSFTILFLAWLAGFSSRLFAVIRFESIIHEFDPWFNYRSTHHLASHGFYEFLNWFDERAWYPLGRIVGGTVYPGLMITAGLIHWILNTLNITVHIRDVCVFLAPTFSGLTSISTFLLTRELWNQGAGLLAACFIAIVPGYISRSVAGSFDNEGIAIFALQFTYYLWVKSVKTGSVFWTMCCCLSYFYMVSAWGGYVFIINLIPLHVFVLLLMQRYSKRVYIAYSTFYIVGLILSMQIPFVGFQPIRTSEHMAAAGVFALLQAYAFLQYLRDRLTKQEFQTLFFLGVSLAAGAVFLSVIYLTYTGYIAPWSGRFYSLWDTGYAKIHIPIIASVSEHQPTTWVSFFFDLHILVCTFPAGLWFCIKNINDERVFVALYAISAVYFAGVMVRLMLTLTPVVCMLSAIAFSNVFEHYLGDDMKRENPPVEDSSDEDDKRNQGNLYDKAGKVRKHATEQEKTEEGLGPNIKSIVTMLMLMLLMMFAVHCTWVTSNAYSSPSVVLASYNHDGTRNILDDFREAYFWLRQNTDEHARVMSWWDYGYQIAGMANRTTLVDNNTWNNSHIALVGKAMSSNETAAYKIMRTLDVDYVLVIFGGVIGYSGDDINKFLWMVRIAEGEHPKDIRESDYFTPQGEFRVDKAGSPTLLNCLMYKMSYYRFGEMQLDFRTPPGFDRTRNAEIGNKDIKFKHLEEAFTSEHWLVRIYKVKAPDNRETLDHKPRVTNIFPKQKYLSKKTTKRKRGYIKNKLVFKKGKKISKKTV
B3: sp¦Q9NRP0¦OSTC_HUMAN (protein, UniProt Q9NRP0 1-149, looked up)
Oligosaccharyltransferase …: METLYRVPFLVLECPNLKLKKPPWLHMPSAMTVYALVVVSYFLITGGIIYDVIVEPPSVGSMTDEHGHQRPVAFLAYRVNGQYIMEGLASSFLFTMGGLGFIILDRSNAPNIPKLNRFLLLFIGFVCVLLSFFMARVFMRMKLPGYLMG
B4: sp¦P61006¦RAB8A_HUMAN (protein, UniProt P61006 1-204, looked up)
Ras-related protein Rab-8A: MAKTYDYLFKLLLIGDSGVGKTCVLFRFSEDAFNSTFISTIGIDFKIRTIELDGKRIKLQIWDTAGQERFRTITTAYYRGAMGIMLVYDITNEKSFDNIRNWIRNIEEHASADVEKMILGNKCDVNDKRQVSKERGEKLALDYGIKFMETSAKANINVENAFFTLARDIKAKMDKKLEGNSPQGSNQGVKITPDQQKRSSFFRC
B5: sp¦P46977¦STT3A_HUMAN (protein, UniProt P46977 1-705, looked up)
Dolichyl-diphosphooligosacchar …: MTKFGFLRLSYEKQDTLLKLLILSMAAVLSFSTRLFAVLRFESVIHEFDPYFNYRTTRFLAEEGFYKFHNWFDDRAWYPLGRIIGGTIYPGLMITSAAIYHVLHFFHITIDIRNVCVFLAPLFSSFTTIVTYHLTKELKDAGAGLLAAAMIAVVPGYISRSVAGSYDNEGIAIFCMLLTYYMWIKAVKTGSICWAAKCALAYFYMVSSWGGYVFLINLIPLHVLVLMLTGRFSHRIYVAYCTVYCLGTILSMQISFVGFQPVLSSEHMAAFGVFGLCQIHAFVDYLRSKLNPQQFEVLFRSVISLVGFVLLTVGALLMLTGKISPWTGRFYSLLDPSYAKNNIPIIASVSEHQPTTWSSYYFDLQLLVFMFPVGLYYCFSNLSDARIFIIMYGVTSMYFSAVMVRLMLVLAPVMCILSGIGVSQVLSTYMKNLDISRPDKKSKKQQDSTYPIKNEVASGMILVMAFFLITYTFHSTWVTSEAYSSPSIVLSARGGDGSRIIFDDFREAYYWLRHNTPEDAKVMSWWDYGYQITAMANRTILVDNNTWNNTHISRVGQAMASTEEKAYEIMRELDVSYVLVIFGGLTGYSSDDINKFLWMVRIGGSTDTGKHIKENDYYTPTGEFRVDREGSPVLLNCLMYKMCYYRFGQVYTEAKRPPGFDRVRNAEIGNKDFELDVLEEAYTTEHWLVRIYKVKDLDNRGLSRT
B6: sp¦P57740¦NU107_HUMAN (protein, UniProt P57740 1-925, looked up)
Nuclear pore complex protein …: MDRSGFGEISSPVIREAEVTRTARKQSAQKRVLLQASQDENFGNTTPRNQVIPRTPSSFRQPFTPTSRSLLRQPDISCILGTGGKSPRLTQSSGFFGNLSMVTNLDDSNWAAAFSSQRSGLFTNTEPHSITEDVTISAVMLREDDPGEAASMSMFSDFLQSFLKHSSSTVFDLVEEYENICGSQVNILSKIVSRATPGLQKFSKTASMLWLLQQEMVTWRLLASLYRDRIQSALEEESVFAVTAVNASEKTVVEALFQRDSLVRQSQLVVDWLESIAKDEIGEFSDNIEFYAKSVYWENTLHTLKQRQLTSYVGSVRPLVTELDPDAPIRQKMPLDDLDREDEVRLLKYLFTLIRAGMTEEAQRLCKRCGQAWRAATLEGWKLYHDPNVNGGTELEPVEGNPYRRIWKISCWRMAEDELFNRYERAIYAALSGNLKQLLPVCDTWEDTVWAYFRVMVDSLVEQEIQTSVATLDETEELPREYLGANWTLEKVFEELQATDKKRVLEENQEHYHIVQKFLILGDIDGLMDEFSKWLSKSRNNLPGHLLRFMTHLILFFRTLGLQTKEEVSIEVLKTYIQLLIREKHTNLIAFYTCHLPQDLAVAQYALFLESVTEFEQRHHCLELAKEADLDVATITKTVVENIRKKDNGEFSHHDLAPALDTGTTEEDRLKIDVIDWLVFDPAQRAEALKQGNAIMRKFLASKKHEAAKEVFVKIPQDSIAEIYNQCEEQGMESPLPAEDDNAIREHLCIRAYLEAHETFNEWFKHMNSVPQKPALIPQPTFTEKVAHEHKEKKYEMDFGIWKGHLDALTADVKEKMYNVLLFVDGGWMVDVREDAKEDHERTHQMVLLRKLCLPMLCFLLHTILHSTGQYQECLQLADMVSSERHKLYLVFSKEELRKLLQKLRESSLMLLDQGLDPLGYEIQL
B7: sp¦Q15907¦RB11B_HUMAN (protein, UniProt Q15907 2-215, looked up)
Ras-related protein Rab-11B: GTRDDEYDYLFKVVLIGDSGVGKSNLLSRFTRNEFNLESKSTIGVEFATRSIQVDGKTIKAQIWDTAGQERYRAITSAYYRGAVGALLVYDIAKHLTYENVERWLKELRDHADSNIVIMLVGNKSDLRHLRAVPTDEARAFAEKNNLSFIETSALDSTNVEEAFKNILTEIYRIVSQKQIADRAAHDESPGNNVVDISVPPTTDGQKPNKLQCC
B8: sp¦P30048¦PRDX3_HUMAN (protein, UniProt P30048 62-256, looked up)
Thioredoxin-dependent …: APAVTQHAPYFKGTAVVNGEFKDLSLDDFKGKYLVLFFYPLDFTFVCPTEIVAFSDKANEFHDVNCEVVAVSVDSHFSHLAWINTPRKNGGLGHMNIALLSDLTKQISRDYGVLLEGSGLALRGLFIIDPNGVIKHLSVNDLPVGRSVEETLRLVKAFQYVETHGEVCPANWTPDSPTIKPSPAASKEYFQKVNQ

Each molecule was assayed on human HL60 cells (assay: SWATH-MS proteomics, differential protein representation, akirin2 KO vs WT HL60 cells). Conditions: KO vs WT; akirin2 KO vs WT HL60 cells; sheet "Under-represented in KO".
Assay type: cell-based
How it was run: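 WT and akirin2 KO HL60 lysates (150 µg, n=3 biological replicates) were FASP trypsin-digested and desalted. A spectral library was built by IDA from 3 µg digests, then 5 µg per sample went to variable-window SWATH DIA over a 120-min 5–30% acetonitrile gradient. Identifications were accepted at 1% global FDR, with total-area-sum normalization.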

Row | Molecule | Fold Change | Log (Fold Change)
1 | B1 | 0.6196 | -0.2079
2 | B2 | 0.6204 | -0.2073
3 | B3 | 0.6247 | -0.2043
4 | B4 | 0.62 | -0.2076

Same assay, conditions: akirin2 KO vs WT HL60 cells; sheet "Under-represented in KO"

Row | Molecule | Fold Change | Log (Fold Change)
5 | B5 | 0.6295 | -0.201
6 | B6 | 0.6316 | -0.1995
7 | B7 | 0.6332 | -0.1984
8 | B8 | 0.6339 | -0.198
